Reference: patent US20190153113A1, “CD39 VASCULAR ISOFORM TARGETING AGENTS” (INNATE PHARMA, priority 2015, published 2019)

How the values were obtained:
[1] = Stability in reference formulation, thermal shift stability assay (aggregation temperature); assay type: physicochemical; details: in words
Description: All antibodies were tested for stability in the following reference formulation at a concentration of approximatively 7 mg/mL: pH 6.0; histidine buffer (10 mM); sucrose (200 mM); NaCl (50 mM); Polysorbate 80 (PS80) (0.2 g/L). […] So for this study the concentration is set at 0.2 g/L.
The stability of the formulations was monitored in two storage conditions (at +5° C.±3° C. and at +40±3° C. For each study, 3 times point were performed: TO, T15D (15 days) and T1M (1 month). A freeze thaw (F/T) and a thermal shift stability assay (TSSA) were conducted for the format comparison. To perform F/T cycles, the samples were frozen at least 2 hours at −20° C. and thawed at least 1 hour at room temperature, the F/T cycle is repeated three times and samples are tested 24h after the last Freeze/Thaw cycle. At each time point, the following tests were performed: • Particulate Matter (MFI) • Visual Inspection (Appearance) • Impurities (SE-HPLC) • Turbidity (400 nm) • Protein Concentration (280 nm) (performed with Nanodrop, Thermo Fisher Scientific Inc.)
Aggregation temperature is correlated with the intrinsic stability. The higher the TAgg, the higher the stability of the protein. […]

[2] = molecular target: T1, CD39-L2 (Homo sapiens, UniProt O75354, K202E); experiment: ELISA titration on recombinant human CD39 isoforms; assay type: binding; details: recombinant protein coated
T1 sequence (O75354 1-484 K202E): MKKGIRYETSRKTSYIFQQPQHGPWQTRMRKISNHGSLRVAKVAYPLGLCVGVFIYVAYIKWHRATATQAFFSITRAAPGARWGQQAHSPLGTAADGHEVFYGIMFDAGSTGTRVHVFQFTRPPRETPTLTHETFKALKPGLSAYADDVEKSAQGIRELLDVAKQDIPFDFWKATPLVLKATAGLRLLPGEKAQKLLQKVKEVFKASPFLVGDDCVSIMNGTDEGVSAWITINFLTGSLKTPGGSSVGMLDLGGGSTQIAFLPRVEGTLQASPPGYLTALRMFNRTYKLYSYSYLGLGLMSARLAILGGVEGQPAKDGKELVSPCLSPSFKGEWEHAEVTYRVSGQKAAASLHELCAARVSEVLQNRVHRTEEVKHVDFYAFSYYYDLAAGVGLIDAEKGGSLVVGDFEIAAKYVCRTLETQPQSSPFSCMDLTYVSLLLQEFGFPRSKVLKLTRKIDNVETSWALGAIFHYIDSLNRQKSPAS
Description: (§1) Wells were washed in TBS Tween 20, and further saturated 2H at RT in TBS Blocking buffer. Dose range concentration of primary antibody was incubated in TBS blocking buffer for 2h at RT. Wells were washed in TBS Tween 20. […] Optical density was measured on Enspire at OD=450.

[3] = molecular target: T2, CD39-L4 (Homo sapiens, UniProt O75356); experiment: ELISA titration on recombinant human CD39 isoforms; assay type: binding; details: recombinant protein coated
T2 sequence (O75356 25-428): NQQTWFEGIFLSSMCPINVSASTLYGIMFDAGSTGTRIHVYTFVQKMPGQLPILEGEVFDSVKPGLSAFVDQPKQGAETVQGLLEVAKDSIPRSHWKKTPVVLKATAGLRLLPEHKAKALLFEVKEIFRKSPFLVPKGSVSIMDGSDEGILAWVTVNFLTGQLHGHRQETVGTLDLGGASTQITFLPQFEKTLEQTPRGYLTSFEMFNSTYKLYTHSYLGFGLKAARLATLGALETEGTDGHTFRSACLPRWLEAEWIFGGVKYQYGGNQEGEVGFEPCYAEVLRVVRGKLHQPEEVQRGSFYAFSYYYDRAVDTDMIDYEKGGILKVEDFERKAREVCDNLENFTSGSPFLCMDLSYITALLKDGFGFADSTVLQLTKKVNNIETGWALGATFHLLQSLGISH
Description: as §1

[4] = molecular target: T3, vascular CD39 (Homo sapiens, UniProt P49961); experiment: ELISA titration on recombinant human CD39 isoforms; assay type: binding; details: recombinant protein coated
T3 construct: recombinant human CD39-M2 extracellular domain recombinant protein; made in house; host or cells: CHO cells (secreted, purified from supernatant)
T3 sequence (P49961 38-478 limits assumed): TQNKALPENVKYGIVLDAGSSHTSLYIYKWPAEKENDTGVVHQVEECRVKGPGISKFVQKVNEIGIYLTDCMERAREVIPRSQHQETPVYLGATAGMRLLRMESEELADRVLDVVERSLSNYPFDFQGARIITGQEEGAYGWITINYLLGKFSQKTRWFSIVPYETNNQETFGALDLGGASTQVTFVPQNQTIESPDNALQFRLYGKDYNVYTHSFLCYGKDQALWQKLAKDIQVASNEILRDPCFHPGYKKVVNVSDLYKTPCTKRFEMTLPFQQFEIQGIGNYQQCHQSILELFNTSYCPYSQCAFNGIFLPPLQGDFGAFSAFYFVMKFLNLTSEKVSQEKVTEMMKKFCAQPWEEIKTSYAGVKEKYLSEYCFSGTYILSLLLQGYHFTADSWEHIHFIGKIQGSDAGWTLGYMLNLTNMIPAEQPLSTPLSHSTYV
Description: as §1

[5] = molecular target: T4, CD39-L3 (Homo sapiens, UniProt O75355); experiment: ELISA titration on recombinant human CD39 isoforms; assay type: binding; details: recombinant protein coated
T4 sequence (O75355 1-529): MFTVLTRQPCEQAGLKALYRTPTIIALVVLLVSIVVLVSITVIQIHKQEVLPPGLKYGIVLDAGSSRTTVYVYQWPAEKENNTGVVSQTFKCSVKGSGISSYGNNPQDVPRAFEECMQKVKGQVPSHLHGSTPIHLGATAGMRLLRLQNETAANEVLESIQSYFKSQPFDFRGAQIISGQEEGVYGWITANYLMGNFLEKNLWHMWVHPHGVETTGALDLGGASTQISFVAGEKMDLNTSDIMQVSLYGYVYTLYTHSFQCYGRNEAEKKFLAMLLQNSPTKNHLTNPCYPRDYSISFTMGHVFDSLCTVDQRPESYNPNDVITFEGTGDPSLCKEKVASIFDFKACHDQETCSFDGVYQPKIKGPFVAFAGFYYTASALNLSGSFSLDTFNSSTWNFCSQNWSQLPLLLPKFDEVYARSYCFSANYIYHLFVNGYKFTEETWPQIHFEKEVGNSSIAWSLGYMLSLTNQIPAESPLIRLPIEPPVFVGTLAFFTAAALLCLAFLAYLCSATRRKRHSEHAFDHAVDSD
Description: as §1

B1: I-392: anti-CD39 antibody, VH SEQ ID NO: 8 and VL SEQ ID NO: 9, chimeric human IgG1 with N297Q mutation (antibody, V domains shown)
VH: QIQLVQSGPEVKKPRETVKISCKASGYTFTHYGMNWVKQAPGKGLKWMGWINTYTGEPTYADDFKGRFAFSLEASASTAYLQINNLKNEDTATYFCARRRYEGNYVFYYFDYWGQGTTLTVSS
VL: DIQMTQSPASLSASVGETVTITCRASENIYSYFSWYQQKQGKSPQLLVYTAKTLAEGVPSRFSGSGSGTQFSLKINSLQPEDFGSYYCQHHYVTPYTFGGGTKLEIK
stability (aggregation) [1]: relatively low inherent stability
binding to CD39-L2 [2]: not to any of the CD39 isoforms
binding to CD39-L4 [3]: not to any of the CD39 isoforms
binding to vascular CD39 [4]: bound to the vascular CD39
binding to CD39-L3 [5]: not to any of the CD39 isoforms
